Assay results from publication doi:10.1101/2021.12.01.470705 (bioRxiv, 2021).

Experiments:
[1] = molecular target: WWOX tandem WW1-WW2 domains (amino acid 16-91) (human) (UniProt Q9NZC7); assay: ITC
[2] = molecular target: WWOX tandem WW1-WW2 domains (amino acid 16-91) (human) (UniProt Q9NZC7); assay: NMR titration
[3] = molecular target: T1, WWOX tandem WW1-WW2 domains (amino acid 16-91) (human, UniProt Q9NZC7 16-91); assay: ITC
T1 sequence (looked up): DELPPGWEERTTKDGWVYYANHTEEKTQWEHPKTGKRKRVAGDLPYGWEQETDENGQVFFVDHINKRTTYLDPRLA

[4] = molecular target: T2, WWOX WW1 domain (amino acid 16-50) (human, UniProt Q9NZC7 16-50); assay: ITC
T2 chain (looked up): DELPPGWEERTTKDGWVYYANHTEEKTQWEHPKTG

[5] = molecular target: T3, WWOX WW2 domain (amino acid 57-91) (human, UniProt Q9NZC7 57-91); assay: ITC
T3 chain (looked up): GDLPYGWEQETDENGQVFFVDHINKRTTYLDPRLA

Work on “ErbB4 double-motif peptide PY1PY2 (natural linker)” yielded a Kd [1] of 14 µM and an apparent KD, WW2 site [2] of 1000 µM.

For ErbB4 single-motif peptide PY1, the Kd [1] was over 100 µM.

In the case of ErbB4 single-motif peptide PY2, the Kd [1] is reported as over 100 µM.

For “PY3AY3, PY3PY3 peptide with PP-to-AA mutations in the C-terminal motif”, the Kd [1] was 27 µM.

For KPGTVLPPPPYRHRN (peptide, UniProt Q15303 1291-1305, looked up) [ErbB4 1291-1305 (PY3) single-motif peptide], the Kd [3] was 30 µM, the Kd [4] was 78 µM and the Kd [5] was over 200 µM.
